Results: article PMC10335668 (2023)

B1: HCV E1 glycoprotein, H77 WT isolate [hepatitis C virus] / CD81 receptor [not stated] (parent complex)
chain 1: YQVRNSSGLYHVTNDCPNSSVVYEAADAILHTPGCVPCVREGNASRCWVAVTPTVATRDGKLPTTQLRRHIDLLVGSATLCSALYVGDLCGSVFLVGQLFTFSPRHHWTTQDCNCSIYPGHITGHRMAWNMMMNWSPTAALVVAQLLRIPQAIMDMIAGAHWGVLAGIKYFSMVGNWAKVLVVLLLFAGVDA
chain 2: MGVEGCTKCIKYLLFVFNFVFWLAGGVILGVALWLRHDPQTTNLLYLELGDKPAPNTFYVGIYILIAVGAVMMFVGFLGCYGAIQESQCLLGTFFTCLVILFACEVAAGIWGFVNKDQIAKDVKQFYDQALQQAVVDDDANNAKAVVKTFHETLDCCGSSTLTALTTSVLKNNLCPSGSNIISNLFKEDCHQKIDDLFSGKLYLIGIAAIVVAVIMIFEMILSMVLCCGIRNSSVY

Variants of: B1
Assay: CD81 receptor binding (method in S1 Text, not given); parent: 1; read off a plot

Variant	ratio to parent
chain 1 C16A, chain 1 C35A	~0.8
chain 1 E24C, chain 1 I29C	~0.65
chain 1 C38A, chain 1 C113A	~0.85
chain 1 C81A, chain 1 C90A	~1.1
chain 1 R4C, chain 1 Q111C	~0.6
chain 1 C47A, chain 1 C115A	~0.85
